Measured values published in patent US20250145684A1 (IMMATICS BIOTECHNOLOGIES, published 2025).

Target: T1, HLA-B*08:01 (human)
T1 construct: MHC monomer first loaded with a UV-sensitive peptide that is cleaved by UV light and exchanged for the test peptide
Assay: UV peptide exchange ELISA
In short: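 Peptide–MHC complexes formed by UV-mediated exchange of a photocleavable ligand; exchange yield assessed by ELISA on streptavidin-coated plates, samples diluted 100-fold. Bound complexes detected with HRP anti-β2m and TMB at 450 nm against HLA-A*02:01 monomer standards (15–500 ng/ml).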

peptide exchange yield [%] | Binder
20 to 50 | YVKRKTNVL [YVKRKTNVL (SEQ ID NO: 63)]
50 to 75 | TLRLLVAAL [TLRLLVAAL (SEQ ID NO: 50)]
20 to 50 | AARLRPAL [AARLRPAL (SEQ ID NO: 7)]
20 to 50 | VLRRKTLL [VLRRKTLL (SEQ ID NO: 42)]
20 to 50 | NPYLKLVL [NPYLKLVL (SEQ ID NO: 32)]
20 to 50 | ESMLKTTL [ESMLKTTL (SEQ ID NO: 40)]
50 to 75 | FLRVFTDSL [FLRVFTDSL (SEQ ID NO: 49)]
20 to 50 | DAAAFFKSV [DAAAFFKSV (SEQ ID NO: 251)]
20 to 50 | NLLMRNVL [NLLMRNVL (SEQ ID NO: 65)]
50 to 75 | LPLAHHIQL [LPLAHHIQL (SEQ ID NO: 72)]
20 to 50 | DARCKLAEL [DARCKLAEL (SEQ ID NO: 26)]
20 to 50 | IYRKKYIL [IYRKKYIL (SEQ ID NO: 34)]
20 to 50 | DLSRRDVSL [DLSRRDVSL (SEQ ID NO: 54)]
50 to 75 | EVYQKIIL [EVYQKIIL (SEQ ID NO: 38)]
50 to 75 | WIGLRNLDL [WIGLRNLDL (SEQ ID NO: 33)]
20 to 50 | ELARQRLL [ELARQRLL (SEQ ID NO: 69)]
20 to 50 | SPRVKWTF [SPRVKWTF (SEQ ID NO: 31)]
50 to 75 | ERRVKVSSL [ERRVKVSSL (SEQ ID NO: 51)]
20 to 50 | HLHPKGREL [HLHPKGREL (SEQ ID NO: 25)]
20 to 50 | DLQKKAQAL [DLQKKAQAL (SEQ ID NO: 30)]
50 to 75 | STMPKILAL [STMPKILAL (SEQ ID NO: 5)]
20 to 50 | VLLSRRTAL [VLLSRRTAL (SEQ ID NO: 55)]
20 to 50 | DMNTKRAIHTL [DMNTKRAIHTL (SEQ ID NO: 67)]
20 to 50 | DLRKLKRQL [DLRKLKRQL (SEQ ID NO: 53)]
20 to 50 | SIKKELVVL [SIKKELVVL (SEQ ID NO: 61)]
50 to 75 | MLHIKKAEV [MLHIKKAEV (SEQ ID NO: 60)]
20 to 50 | RGALRTLSL [RGALRTLSL (SEQ ID NO: 41)]

peptide exchange yield [%] | Binder
20 to 50 | MPLKHYLL [MPLKHYLL (SEQ ID NO: 57)]
20 to 50 | EAFSRASL [EAFSRASL (SEQ ID NO: 37)]
20 to 50 | MFPARGVPL [MFPARGVPL (SEQ ID NO: 73)]
20 to 50 | DPKSRLKSL [DPKSRLKSL (SEQ ID NO: 28)]
50 to 75 | RLKVALSTL [RLKVALSTL (SEQ ID NO: 45)]
50 to 75 | HLTNRVLSL [HLTNRVLSL (SEQ ID NO: 44)]
20 to 50 | DLKKTRVL [DLKKTRVL (SEQ ID NO: 66)]
20 to 50 | ELALRQTV [ELALRQTV (SEQ ID NO: 48)]
20 to 50 | ILCGSRKMPL [ILCGSRKMPL (SEQ ID NO: 56)]
50 to 75 | DLKIPRYPV [DLKIPRYPV (SEQ ID NO: 68)]
20 to 50 | ELFLHPVL [ELFLHPVL (SEQ ID NO: 29)]
50 to 75 | DLRNKIIAA [DLRNKIIAA (SEQ ID NO: 46)]
20 to 50 | FILGREAGAL [FILGREAGAL (SEQ ID NO: 64)]
50 to 75 | HIRIKHTF [HIRIKHTF (SEQ ID NO: 71)]
20 to 50 | IVKIKVQEL [IVKIKVQEL (SEQ ID NO: 36)]
50 to 75 | SIQSRYISM [SIQSRYISM (SEQ ID NO: 3)]
50 to 75 | ELILKHSL [ELILKHSL (SEQ ID NO: 52)]
50 to 75 | DLKKLVDSL [DLKKLVDSL (SEQ ID NO: 43)]
20 to 50 | FMLAKEASL [FMLAKEASL (SEQ ID NO: 62)]
20 to 50 | NRQKRFVL [NRQKRFVL (SEQ ID NO: 6)]
20 to 50 | HSRVKLAQL [HSRVKLAQL (SEQ ID NO: 47)]
20 to 50 | ELFQRPVL [ELFQRPVL (SEQ ID NO: 35)]
20 to 50 | RPKGTPPL [RPKGTPPL (SEQ ID NO: 70)]
20 to 50 | FDFRGKTKVF [FDFRGKTKVF (SEQ ID NO: 59)]
20 to 50 | QVMPKTGL [QVMPKTGL (SEQ ID NO: 4)]
20 to 50 | LPKKMKLL [LPKKMKLL (SEQ ID NO: 58)]
20 to 50 | DAKSKIEQI [DAKSKIEQI (SEQ ID NO: 39)]
